According to patent publication US20260285989 (published 2026):

B1: hzRap-A10-hFc (designed binder)
chain: EVQLLESGGGLVQPGGSLRLSCAASGYTYGPYCMGWFRQAPGKEREGVAAVGGDARTWYGNSVKGRFTISRDNSKNTLYLQMNSLRAEDTAVYYCAADFDRTVCSDDIYDYTYRGQGTLVTVSS
B2: hzR1-A12-hFc (antibody, V domains shown)
VH: EVQLVESGGGLVQPGGSLRLSCAASGTAYDNACMGWFRQAPGKEREGVASIHLRDRTYYADSVKGRFTISRDNSKNTLYLQMNSLRAEDTAVYYCASSNICNALNLQGNTYWGQGTLVTVSS
B3: R1-F9-hFc (antibody, V domains shown)
VH: QVQLQESGGGSVQAGETLRLSCTASGFTVHDMGWYRQAPGNECELVSTISSDGSTYYADSVKGRFTISQDNAKNTVYLQMNSLKPEDTAVYYCAADHFTGLQLAECKADFGYWGQGTQVTVSS
B4: R1-C10-hFc (antibody, V domains shown)
VH: QVQLQESGGGSVQAGETLRLSCTASGSTFDEYDMGWYRQAPGNKCELVSTISTIDGSTYYADSVKGRFTISQDNTKNTVYLQMNSLKPEDTGVYYCEADDRGTWDRGGCWGQGTQVTVSS
B5: hzR1-C7-hFc (antibody, V domains shown)
VH: EVQLVESGGGLVQPGGSLRLSCAASGNLYRDPCMGWFRQAPGKDREGVAAMNTGADSTFYARSVKGRFTISRDNAKNTLYLQMNSLRAEDTAVYYCAASRYCTERTYTWRYDYDYWGQGTLVTVSS
B6: hzR1-F9-hFc (antibody, V domains shown)
VH: EVQLVESGGGLVQPGGSLRLSCAASGFTVHDMGWYRQAPGKECELVSTISSDASTYYADSVKGRFTISRDNAKNTLYLQMNSLRAEDTAVYYCAADSFTGLQLAECKADFGYWGQGTLVTVSS
B7: R1-C7-hFc (antibody, V domains shown)
VH: QVQLQESGGGPVQAEGSLRLSCTASGNLYRDPCMGWFRQAPGKDREGVAAMNTGADSTFYARSVKGRFTISHDNAKNTLYLQMNSVKPEDTAMYYCAASRYCTERTWTWRYDYDYWGQGTQVTVSS
B8: hzR1-C10-hFc (antibody, V domains shown)
VH: EVQLVESGGGLVQPGGSLRLSCAASGSTFDEYDMGWYRQAPGGKCELVSTISTIDASTYYADSVKGRFTISRDNSKNTLYLQMNSLRAEDTAVYYCEADDRGTWDRGGCWGQGTLVTVSS
B9: Rap-A10-hFc (designed binder)
chain: QVQLQESGGGLVQAGGSLKLSCAASGYTYGPYCMGWFRQFPGKEREGVAAVGGDGRTWYGNSVKGRFTISQDNAKKTLYLQINALKPEDTAMYYCAADFDRTVCSDDIYDYTYRGQGTQVTVSS
B10: hzRap-F11-hFc (antibody, V domains shown)
VH: EVQLVESGGGLVQPGGSLRLSCAASGFTYIPAYMGWFRQAPGKERERVASIKTDASTTYADSVEGRFTISQDNAKNTLYLQMNSLRPEDTAVYYCAAYQFGAFRVWGQGTLVTVSS
B11: Rap-F11-hFc (antibody, V domains shown)
VH: QVQLQESGGGSVQPGGSLRLSCAASGFTYIPAYMGWFRQAPGKERERVASIKTDGSTTYADSVNGRFTIAQDTAKNTLYLQMDSLKPEDTAMYYCAAYQFGAFRVWGQGTQVTVSS
B12: R1-A12-hFc (antibody, V domains shown)
VH: QVQLQESGGGPVQAGGSLRLSCSASTTAYDNACMGWFRQAPGKEREGVASIHLRDRTYYADSVKGRFTLSRDGASKTLYLQMNSLKPEDSGTYYCASSNICNGLNLQGNTYWGQGTQVTVSS
B13: Rap-C10-hFc (antibody, V domains shown)
VH: QVQLQESGGGSVQPGGSLRLSCAASGFTYIPAYMGWFRQAPGKERERVASISSTDGSTTYADSVKGRFTVSQDTAKNTLYLQMNSLKPEDTAMYYCAAYQFGAFRVWGQGTQVTVSS
B14: hzRap-C10-hFc (antibody, V domains shown)
VH: EVQLVESGGGLVQPGGSLRLSCAASGFTYIPAYMGWFRQAPGKERERVASISSTEGSTTYADSVKGRFTISQDNSKNTLYLQMNSLRPEDTAVYYCAAYQFGAFRVWGQGTLVTVSS

What was measured:
IL-18RAP ECD-His = target: T1, IL-18RAP ECD-His (human); assay: BLI
T1 chain: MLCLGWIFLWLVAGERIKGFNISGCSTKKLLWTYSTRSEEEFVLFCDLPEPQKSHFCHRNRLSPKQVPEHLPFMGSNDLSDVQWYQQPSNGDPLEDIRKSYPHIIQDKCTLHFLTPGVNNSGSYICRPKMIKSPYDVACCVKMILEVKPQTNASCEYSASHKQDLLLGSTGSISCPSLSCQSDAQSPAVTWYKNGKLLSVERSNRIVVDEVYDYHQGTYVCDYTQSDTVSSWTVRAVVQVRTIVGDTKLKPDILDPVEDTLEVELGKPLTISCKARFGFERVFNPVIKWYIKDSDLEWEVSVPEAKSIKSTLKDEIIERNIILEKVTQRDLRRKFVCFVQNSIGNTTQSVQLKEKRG

IL-18R1 ECD-His = target: T2, IL-18R1 ECD-His (human); assay: BLI
T2 chain: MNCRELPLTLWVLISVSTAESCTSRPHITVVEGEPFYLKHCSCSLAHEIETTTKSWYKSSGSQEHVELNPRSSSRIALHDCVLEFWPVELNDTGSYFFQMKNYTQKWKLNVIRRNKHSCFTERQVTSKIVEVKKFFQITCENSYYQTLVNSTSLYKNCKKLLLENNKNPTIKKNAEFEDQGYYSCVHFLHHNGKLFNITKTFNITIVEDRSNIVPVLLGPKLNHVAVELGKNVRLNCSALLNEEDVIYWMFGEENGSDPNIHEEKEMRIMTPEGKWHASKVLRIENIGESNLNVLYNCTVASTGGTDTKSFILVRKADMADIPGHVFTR

Row | Binder | Kd (IL-18RAP ECD-His) | Kd (IL-18R1 ECD-His)
1 | B1 | 0.986 nM | –
2 | B2 | – | 2 nM
3 | B3 | – | 1.1 nM
4 | B4 | – | 0.0281 nM
5 | B5 | – | 2.53 nM
6 | B6 | – | 3.74 nM
7 | B7 | – | 2.56 nM
8 | B8 | – | 1.45 nM
9 | B9 | 0.53 nM | –
10 | B10 | 4.85 nM | –
11 | B11 | 4.58 nM | –
12 | B12 | – | 2.82 nM
13 | B13 | 1.73 nM | –
14 | B14 | 6.24 nM | –
